Assay results published in article PMC4895914 (2014).
Square brackets hold non-standard residues; d marks the D form. Ends that are not written are not given here. * marks the point of attachment. His(π-(CH2)8Ph,τ-CH2CH2CH(OH)CH2OH) = His N(pi)-(CH2)8Ph and N(tau)-CH2CH2CH(OH)CH2OH; FITC = O=C1OC2(c3ccc(O)cc3Oc3cc(O)ccc32)c2ccc(NC(=S)*)cc21; His(π-(CH2)8Ph) = N[C@@H](Cc1cncn1CCCCCCCCc1ccccc1)C(=O)O; pT = C[C@@H](OP(=O)(O)O)[C@H](N)C(=O)O; PEG = not defined here

T1: 2a* (not fully specified; reading uncertain)
T1 chain: {FITC-PEG}-PL[His(π-(CH2)8Ph)]S[pT]

T2: 3c* (not fully specified (residue 3); reading uncertain; also: His N(tau)-hydroxyalkyl, not given here)
T2 chain: {FITC-PEG}-PLHS[pT]

T3: 3m* (not fully specified; reading uncertain)
T3 chain: {FITC-PEG}-PL[His(π-(CH2)8Ph,τ-CH2CH2CH(OH)CH2OH)]S[pT]


Assays:
Assay in all cases: fluorescence polarization
[1] = target: T1, 2a*
[2] = target: T2, 3c*
[3] = target: T3, 3m*

Kd [1] [nM] | Kd [2] [nM] | Kd [3] [nM] | Binder
400 | 43 | 24 | Plk2 PBD PBD (protein) HLSSPAKNFFKKAAAALFGGKKDKARYIDTHNRVSKEDEDIYKLRHDLKKTSITQQPSKHRTDEELQPPTTTVARSGTPAVENKQQIGDAIRMIVRGTLGSCSSSSECLEDSTMGSVADTVARVLRGCLENMPEADCIPKEQLSTSFQWVTKWVDYSNKYGFGYQLSDHTVGVLFNNGAHMSLLPDKKTVHYYAELGQCSVFPATDAPEQFISQVTVLKYFSHYMEENLMDGGDLPSVTDIRRPRLYLLQWLKSDKALMMLFNDGTFQVNFYHDHTKIIICSQNEEYLLTYINEDRISTTFRLTTLLMSGCSSELKNRMEYALNMLLQRCN
306 | 240 | 62 | Plk3 PBD PBD (protein) TPPNPARSLFAKVTKSLFGRKKKSKNHAQERDEVSGLVSGLMRTSVGHQDARPEAPAASGPAPVSLVETAPEDSSPRGTLASSGDGFEEGLTVATVVESALCALRNCIAFMPPAEQNPAPLAQPEPLVWVSKWVDYSNKFGFGYQLSSRRVAVLFNDGTHMALSANRKTVHYNPTSTKHFSFSVGAVPRALQPQLGILRYFASYMEQHLMKGGDLPSVEEVEVPAPPLLLQWVKTDQALLMLFSDGTVQVNFYGDHTKLILSGWEPLLVTFVARNRSACTYLASHLRQLGCSPDLRQRLRYALRLLRDRSPA
